The series is described as follows: soluble on expression in E. coli; label from the status in PepcDB or PDB records.
For the sequence “MGSDKIHHHHHHLTKKITEFQNDEEMELFVLIKSAEKRVTKAGKDFISMKFQDRSGDIHGNCWDAKEEDFKNFQPGRVVLLRGKRETYKNAPQVKIMAMRLATDEEPNDPTAYTEKGPVSAEKLREEFTQLMFEINNPDWNRVVRYLLKKYDREFFSFPAAKTNHHAFEGGLAFHTLSIVNLAKSVAAQYEQVDQSLLIAGAILHDLGKTIELSGPIATQYTVEGNLLGHIVIVDEEIVEAAKDLKIDPSSESMVVLRHMIVAHHGLKEYGSPVEPHMLEAVILHALDELDAEIQMVSGALKNTQPGAFSERIFGMDGRNFYKPESK”, the “soluble on expression in E. coli” value is “not soluble”. On to “MAHHHHHHMDTPEREVSPPPAEEDENKKRVIIILEGAHLQLIETKRYIYELANIMKHKHLLRDQKNEEEMRNFRPDILHQCLIHLLESALNKYGLLQVYIKTHDNQLFYVSSHLKIPKTYDQFESLMVTFLRKYKIKANEKNLCLLKFLKNDYSAILPINGKKIGLSVKGKKVHFSEYVQNLQNEDVPVTFFIGAVAYSNPITKLENLDDNICISEFSLSAATCCSTICSEFENLLGLF”, for which the “soluble on expression in E. coli” value is “soluble”. Take “MSDQEDKEVPDVEVDYSKYDEDSVPIPEKDIEESHPGRPDLDYDETPVGPAPTECTEEKND”: the “soluble on expression in E. coli” value is recorded as “not soluble”. Regarding “MRKKLLSIALCATMVAGIFTGCGSSSDTSKKDEGKSADGKITLNVINYHVGTDYAADYYEYLFDAFKKTEEGKNVEFKFEEIPTTDAYNQKIKLLISSGDLPDIVLNGGNNITALAAKSGKVTDITEYLDKDPEWKAMFSDQDLEFNSYEGKVYGIPVSKEISYIYYNKDLFKKAGLEAPDVAYETWDDFYKACDTLKSKNITPVSMDTADLGWLSNLWYSGLIGTAGEEGNKFMNTMYPTDYTSDLVVNATEQLQKMLKNYTTSDAAGGKYDTMATHFFNSEVAMLPNGPWMIPDFKSTDKAPEGFYDKVGIMLLPGSGMESVPTPGDMVGTKDPEKVKAAVAFLKFETTAENQLKALEMAGLQPVSSNIEVPDSLKESDPLMAEVLDIQSKAKYTYGQNQAYWYQNVIDTFSTQLPELAYGNMTAKEFCQKLTDAAKKN”, the “soluble on expression in E. coli” value is given as “not soluble”.

Turning to “MGSDKIHHHHHHMWFSLTYAIIMHSLTTTRKMLQRLDVYLTSFEWGNFSKSKLSILQAFLKIATKDGYDAVSMRSLAKAVDLKPPTMYSHFPAGKDQIVSSAFRWHYYSFAMAVKEGLSQSETLEEYWSALIRVHIIQQIKHPENDLFDMLMATDRLGSILPTDLRSEMIEWLSFCDFMYESIATDLGIDDAKQKSKIIRVTLDGANSWWKWDDSQENLEECIRYAERIAAGILKI”, the “soluble on expression in E. coli” value is “not soluble”. On to “MARLAAFDMDGTLLMPDHHLGEKTLSTLARLRERDITLTFATGRHALEMQHILGALSLDAYLITGNGTRVHSLEGELLHRDDLPADVAELVLYQQWDTRASMHIFNDDGWFTGKEIPALLQAFVYSGFRYQIIDVKKMPLGSVTKICFCGDHDDLTRLQIQLYEALGERAHLCFSATDCLEVLPVGCNKGAALTVLTQHLGLSLRDCMAFGDAMNDREMLVSVGSGFIMGNAMPQLRAELPHLPVIGHCRNQAVSHYLTHWLDYPHLPYSPE”, for which the “soluble on expression in E. coli” value is on record as “soluble”. Regarding “MAHHHHHHMGQGLTGGAMAGAALSITALPLRLTLADHLGICGAATACGLALDFASDCCSKEGRVIIHRDVLLKAQDPLRHLSTFYTTCESNRMARLFRQKHEWVVLESHGQQYYVVQKNPATGDVLMDVRNSLRAANDVGLQVAGKPMHTGEIRQHRMETEFDLPSDLQVAYVIAWLRKEDPRWAFSTENSRQFTARVRYALMDF”, the “soluble on expression in E. coli” value is reported as “not soluble”.

Consider “MGHHHHHHSHKIRVAHTPDADDAFMFYAMTHGKVDTWLEIEHVIEDIETLNRKAFNAEYEVTAISAHAYALLDDKYRILSAGASVGDGYGPVVVAKSEISLDGKRIAVPGRYTTANLLLKLAVEDFEPVEMPFDRIIQAVLDEEVDAGLLIHEGQITYADYGLKCVLDLWDWWSEQVKLPLPLGLNAIRRDLSVEVQEEFLRAMRESIAFAIENPDEAIEYAMKYSRGLDRERAKRFAMMYVNDYTYNMPESVDAALKKLYEMAEAKGLIKMPKLDILRL”, for which the “soluble on expression in E. coli” value was “soluble”. As to “MGSDKIHHHHHHMIQHKPDLIFLDINLPDINGIDFAEQVQSILPEVHIVFITAYDEYAVKAFELNAIDYVMKPVQRDRLNRTINRITDRKTVEPLRSQTDSKIISCFQTLHFQKGSEIGKAEPIDVNWRTAKARELFAYLVQHRKQPVRKDVLLEFFWPESDVKKGYAQLYSAIYQIRKMLDSLQMNSTVVSFDKSYKLHLNGTKLDVEEWERELRQLPNITEDTLPSYRRLLETYKGDYLAEEAYLWAENERERLRTLYHSTFNKVTTYYLECGYYTDAITLCQRVQTLHPLMETSYFLLMQVYAKMGDNHSVKSQYEKLNHVLEAEYGIHTSDSIENWYNEWKKQLQ”, the “soluble on expression in E. coli” value is “not soluble”.

As to “GPGSMIYSGEIENGQMHGRGCLQYPNKEKYDGDWVFGKRHGTGVYVYADGSRYEGEWVDDKVHGNGACYYTSGNVYTGEWSMGRINGRGVLEYHDGDRYEGEWKDGRMHGKGTYCYSNGDKYEGEWKEDKRHGKGVVVYAAPDGCVSEKYDGEWNEGRMQGWGKYFYADGGVYEGEWVDGRMHGRGTYVFPNGNKYEGEWVEDRKDGYGILLYTNGERYEGYWHLDKAHGKGTLTFLQGDRYVGEWHYGKKHGHGVLSYSNGDTYDGEWRDDDAWGYGVLQYANGCRYEGEWAEDRRHGKGLLVLPDGSSYEGSFAHGKKDGPGKIILKDGSMYIGTWKDGVIVGQGEFRLSENCDLSNPDY”, the “soluble on expression in E. coli” value is “soluble”. The value for “MRKDVKIYLNHILESIELIEEYTKDKTEDDFFTSKFLQDAVIRRIEIIGEAIKNLPMEFREKYNHIPWKEFAEMRDILIRKYFGVDLGLTWEVVKKDIPKLKEEILKIMEELDKNKNNKYNVFAYGELMKKERLLELINRVPKMIEGRVYGYEKFFDETIGYYGARKKEGSYIDGIILLDITDKELGIFDDYEDLDVYYIREKTTAVSEDGRKYDVYIYLRK” was “soluble”.

On to “MSAAASMFVRQFFHGTRADLSPGELIVVGYQSNFTTAAPLSWVYFSGTLDAAIWGAELAAGDAPQRIYVVEPTGPFEDDPNLTDKKFPGNPTLSYRSKHPLRIVAEMTKWQGHSPERVQQMKDGLARLSAEGAEIID”, for which the “soluble on expression in E. coli” value is reported as “not soluble”. Take “METDGDPTNEIPGSSMAFEVANHTVTEEPSPLDRILAEGRSFNGGNWSSDDLRSLLDGVMKYGTKIEAINYIHRNIVKKRSIEEIKAKIDEIREIIKEHKEIILPECYKNKWIEAGHHNITPPPFCQVDPNDDWSSIMGKIVDHHHGSINKTLPSLRDTYETLFENLALESKTHENAVVTKLLTAKATRTDSQNIRWPVIYRFMKACATLEEQMPALNELEAAVVSKVLDTIETEATTTPDTEKSILAGIFSECQQGNYRFCEQDYPPNVMAAVQLFVDPLRTRFHAIPEVASEVELINFTKDNQPSTSSN”: the “soluble on expression in E. coli” value was “not soluble”. Take “MNGNQARNDIDEWLKTAACIKHPAGCVDQDGHSAFSDREGNLFQLAVPDAFSSLHLYGTLLELQPAVDGRVLASALAINAQKNVLRGSVIALNTENQELFVHHTVTLESLDRVALWQTLDNFVALTRELRSALRSQPVPAAKIESTHFNHLRRGF”: the “soluble on expression in E. coli” value is listed as “not soluble”. For the sequence “ICFSKIFNTQYLSDIRYIDLNQNIDTIKSNFKKGLRYNIKKSKNEGCDLKIIENPSSEDIDHFMECYNSMLCRNESSEKYHFSKQFIMDHFKFIKTFLILAYYQKKVVGAGIFFKGETIMHYHLSGTLKLKGIYPNDLILWESIKKSKDLGLKYFFLGGGVIKDDSLFEYKSGFSK”, the “soluble on expression in E. coli” value was “not soluble”.

On to “MGRPRVARLDRERIAEAALELVDRDGDFRMPDLARHLNVQVSSIYHHAKGRAAVVELVRHRVVREIDGSAFERLPWDEAFSEWARSYRAAFSRHPTAIRLLATETVRDPGSLSVYHSAAAGLRGAGFPDDHIMAVITAAENFLLGAALDAAAPEVMIEADSTTTDDALTRALAAAPRGPERAEQAFELGLAALLAGFHHLLQECGAVQR”, for which the “soluble on expression in E. coli” value is “soluble”. Then “FLLEIGLEEMPAKYVTSSVLQLEKRVTDWLKDNQIEFKEIKTYSTPRRLTVLVEEMAEEQANRVEEAKGPAKKIALDDEGNWSKAALGFAKSQKVAPEDLTFREIKGVEYIYIKKEVIGEKTTALLPSLEKVVTSMTFPVSMHWGSNDLRYIRPIKWLIAMFGEEIIPFEITGVSTSNTSRGHRFLGKTATINQPSDYPHALLEQFVVVNASERKQAIVEQLRELETMENWQIREDDDLLEEVTNLVEYPTVLAGNFEKEYLELPEEVLITTMKEHQRYFPVFSQEGELLPHFVTVRNGNHENLDTVARGNEKVLRARLSDADFFYQEDLKITIDEAVAKLQNIVFHEKLGTLTEKMERVQKVALMLADYLNWQEEDKQDIIRLTNIYKFDLVTNIVGEFPELQGLMGEKYALLQGEKPAIATAIREHYLPSSAEGVLPQTDLGSLIAIADKLETLIGFFCVNIVPTGSADPFGLRRSAFGAMRIIQANGWDIPMLEVISRIVDMERAEGATELPSADVKKEVQTFLKNRLRVILQGHHIRHDIIDAVIGGDPNV”, with “not soluble”.

For the sequence “MRPKVGVLLKMKREALEELKKYADVEIILYPSGEELKGVIGRFDGIIVSPTTKITREVLENAERLKVISCHSAGYDNIDLEEATKRGIYVTKVSGLLSEAVAEFTVGLIINLMRKIHYADKFIRRGEWESHAKIWTGFKRIESLYGKKVGILGMGAIGKAIARRLIPFGVKLYYWSRHRKVNVEKELKARYMDIDELLEKSDIVILALPLTRDTYHIINEERVKKLEGKYLVNIGRGALVDEKAVTEAIKQGKLKGYATDVFEKEPVREHELFKYEWETVLTPHYAGLALEAQEDVGFRAVENLLKVLRGEVPEDLVNKEVLEVRPIENVKML”, the “soluble on expression in E. coli” value was “soluble”. For “MEGRLTVVPTPIGNLEDITLRALKVLREADLILAEDTRTSSVLLHHYDIHCPLQSHHKFNEHRTAKSLAERISGGERIALISDAGTPGISDPGFLLVRACAELGVVVECLPGPTALIPALVASGLPADRFVFEGFLPVKKGRQTRMKELAEELRTMIFYESPHRVLRTLTQFVETFGLDRPAAACRELSKLHEEVIRGTLAELLAHFENHPPRGEFVLIVGGAAPKGRKEEKQ”, the “soluble on expression in E. coli” value is reported as “not soluble”. In the case of “MIRKDLQKLEQEGLLKRTYGGAILERQTIHDDNIRPRLMKNLGEKDIIAKLALKEIKDGDFIFLDASTTNYSIASMLLNTKKQVTVVTNMNRIAILFDSHPSIDVICIGGIYNKNLGGTIGSKAIEDVKSYRFHKAFVGVGGINLVEDFISNFNLEEASMKNAIIKSSLKTYLVAENEKFYTDGICEFAKCEDIDFIISDKKPNEEILKLLKERNISIIYLEHHHHHH”, the “soluble on expression in E. coli” value was “soluble”. Consider “MRAPRWLWLVILLSGSAAADWREVLPNAQVVGGGELTLFGFRVYTARLLSPAKPFVADAPMALELTYHRNIDREDLVDASIDEIKRISGARVTTEQLAAWREQMNQSFVDVQPGMKITGVYLPGREARFYVGDKLQHVVPDSQFAKAFFSIWLDPKTRNPELREQLLGSTGS”, for which the “soluble on expression in E. coli” value is “not soluble”.

Take “MGVMNTGETLDEKAIVASAEKALSDIAAIRTEVSKVIFGQEKVVQNTLLAILSGGHALLVGVPGLAKTKLVTTLGTVLGLDANRIQFTPDLMPSDILGSEVMDQDENGRRSFRFIKGPIFGQLLMADEINRASPRTQSALLQAMQEYHITMAGQTYELPKPFHVLATQNPLEQEGTYPLPEAQLDRFLLQVDVDYPELAAERQILLDTTGTASGEARPVIGAERLMEIQALIRQMPVSDKVVDAILSLVRSARPGHGNKLTDKNVVWGPGPRAGQSLMLTARARALYEGRLAPSLDDVHALAEPVLEHRMALTFAARAEGMSVRDVIAALVEQAKN”: the “soluble on expression in E. coli” value was “not soluble”.

Values taken from the DeepSol protein solubility set.
